In paper PMC6514445, “Enterococcal PcfF Is a Ribbon-Helix-Helix Protein That Recruits the Relaxase PcfG Through Binding and Bending of the oriT Sequence” (Frontiers in Microbiology, 2019):

How the values were obtained:
[1] = biological target: PcfF1-54 (RHH domain, GST tag cleaved off) (Enterococcus faecalis (plasmid pCF10)) (UniProt Q5G3N6); test: SEC; Superdex 75 10/300 GL with molecular mass standards; PcfF1-54 after GST cleavage, absorbance at 254 nm
PcfF [2] = biological target: T1, PcfF (Enterococcus faecalis plasmid pCF10, UniProt Q5G3N6 1-118); test: EMSA; EMSA: 30 nM DNA, 10 mM Tris/HCl pH 7.5, 200 mM NaCl (150 mM NaCl with PcfG), 15 min at room temperature; 20% native PAGE in TAE pH 8.0 at 4 C; conditions: protein: recombinant; tags: N-terminal GST, 3C-cleaved (4 extra residues left); chain copies: 2; label: 5' FITC on sense strand
T1 sequence: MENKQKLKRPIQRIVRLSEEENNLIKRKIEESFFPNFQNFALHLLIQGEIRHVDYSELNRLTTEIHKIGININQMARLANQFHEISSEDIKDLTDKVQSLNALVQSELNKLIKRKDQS

PcfF [3] = biological target: T1, PcfF; test: EMSA (DNA bending); more pronounced shift than end positions; bending; EMSA: 30 nM DNA, 10 mM Tris/HCl pH 7.5, 200 mM NaCl (150 mM NaCl with PcfG), 15 min at room temperature; 20% native PAGE in TAE pH 8.0 at 4 C; conditions: protein: recombinant; tags: N-terminal GST, 3C-cleaved (4 extra residues left); chain copies: 2
PcfF [4] = biological target: T1, PcfF; test: EMSA (DNA bending); EMSA: 30 nM DNA, 10 mM Tris/HCl pH 7.5, 200 mM NaCl (150 mM NaCl with PcfG), 15 min at room temperature; 20% native PAGE in TAE pH 8.0 at 4 C; conditions: protein: recombinant; tags: N-terminal GST, 3C-cleaved (4 extra residues left); chain copies: 2
[5] = biological target: the molecule itself; test: GEMMA (gas-phase electrophoretic mobility macromolecule analysis); SEC peak of wild type PcfF dialysed against 100 mM ammonium acetate pH 7.8, diluted to 0.025 mg/mL with 0.005% Tween-20
[6] = biological target: the molecule itself; test: crystal structure; SeMet-PcfF, sitting drop at 20°C, 0.2 M lithium sulfate, 0.1 M Bis-Tris pH 6.5, 25% PEG 3350; space group P2_(1), 4 molecules in the asymmetric unit; 1.9 Å
[7] = biological target: the molecule itself; test: SEC; Superdex 200 10/300 GL Increase; 20 mM Tris/HCl pH 7.5, 200 mM NaCl; PcfF and its variants, self-association
PcfF R13L/I14A = PcfF R13L/I14A (Enterococcus faecalis plasmid pCF10, UniProt Q5G3N6 1-118, R13L;I14A); test: EMSA; 100 nM protein; Results also say marked decrease; EMSA: 30 nM DNA, 10 mM Tris/HCl pH 7.5, 200 mM NaCl (150 mM NaCl with PcfG), 15 min at room temperature; 20% native PAGE in TAE pH 8.0 at 4 C; conditions: protein: recombinant; chain copies: 2; label: 5' FITC on sense strand
PcfF R13L = PcfF R13L (Enterococcus faecalis plasmid pCF10, UniProt Q5G3N6 1-118, R13L); test: as above; conditions: protein: recombinant; chain copies: 2; label: 5' FITC on sense strand
PcfF N73A/Q74A = PcfF N73A/Q74A (Enterococcus faecalis plasmid pCF10, UniProt Q5G3N6 1-118, N73A;Q74A); test: EMSA; 100 nM protein; as wild type; EMSA: 30 nM DNA, 10 mM Tris/HCl pH 7.5, 200 mM NaCl (150 mM NaCl with PcfG), 15 min at room temperature; 20% native PAGE in TAE pH 8.0 at 4 C; conditions: protein: recombinant; chain copies: 2; label: 5' FITC on sense strand
PcfF I70S = PcfF I70S (Enterococcus faecalis plasmid pCF10, UniProt Q5G3N6 1-118, I70S); test: as above; conditions: protein: recombinant; chain copies: 2; label: 5' FITC on sense strand
PcfF R77S = PcfF R77S (Enterococcus faecalis plasmid pCF10, UniProt Q5G3N6 1-118, R77S); test: as above; conditions: protein: recombinant; chain copies: 2; label: 5' FITC on sense strand
PcfF I70S/R77S = PcfF I70S/R77S (Enterococcus faecalis plasmid pCF10, UniProt Q5G3N6 1-118, I70S;R77S); test: as above; conditions: protein: recombinant; chain copies: 2; label: 5' FITC on sense strand

Molecule: PcfF1-54 (RHH domain, GST tag cleaved off) (from UniProt Q5G3N6 1-54) (domain or fragment)
- stoichiometry N [1]: 2

B1: random 44 bp DNA (dsDNA)
DNA 1: AGTGAACTGAAAGAAGAAACACACGTTGCATGAAGAGCTATATA
DNA 2: TATATAGCTCTTCATGCAACGTGTGTTTCTTCTTTCAGTTCACT
- binding result (PcfF [2]): no binding

B2: oriT middle 120 bp (dsDNA)
DNA 1: GCGAAATATTGGTACCCCATGGAATCGAGGGATCCTCTAGTCGCAACATGCTAGCATGTTGCTCCGCTTGCAAAAAGAAAAGTCGACACGCGTAGATCTGCTAGCATCGATCCATGGACT
DNA 2: AGTCCATGGATCGATGCTAGCAGATCTACGCGTGTCGACTTTTCTTTTTGCAAGCGGAGCAACATGCTAGCATGTTGCGACTAGAGGATCCCTCGATTCCATGGGGTACCAATATTTCGC
- binding result (PcfF [3]): binds

B3: oriT 3' 120 bp (dsDNA)
DNA 1: GTCTCGAGTTTAAAGATATCCAGCTGCCCGGGAGGCCTTCGCGAAATATTGGTACCCCATGGAATCGAGGGATCCTCTAGTCGCAACATGCTAGCATGTTGCTCCGCTTGCAAAAAGAAA
DNA 2: TTTCTTTTTGCAAGCGGAGCAACATGCTAGCATGTTGCGACTAGAGGATCCCTCGATTCCATGGGGTACCAATATTTCGCGAAGGCCTCCCGGGCAGCTGGATATCTTTAAACTCGAGAC
- binding result (PcfF [4]): binds

B4: PcfF (wild type, full length, GST tag cleaved off) (natural protein)
chain: MENKQKLKRPIQRIVRLSEEENNLIKRKIEESFFPNFQNFALHLLIQGEIRHVDYSELNRLTTEIHKIGININQMARLANQFHEISSEDIKDLTDKVQSLNALVQSELNKLIKRKDQS
notes: PcfF accessory factor encoded by plasmid pCF10 of Enterococcus faecalis; GenBank AAW51324; 118 residues, 14 kDa; Cloned in pGEX-6P-2 (BamHI/XhoI); the same is likely here; also called wt PcfF; accessory factor PcfF; source: E. coli BL21(DE3), purified (glutathione-agarose, SEC, 3C protease cleavage, second SEC, reverse purification); not shown: GST, N-terminal, cleaved
- stoichiometry N [5]: ~2

B5: Selenomethionine-derivatized PcfF (full length) (natural protein)
chain: MENKQKLKRPIQRIVRLSEEENNLIKRKIEESFFPNFQNFALHLLIQGEIRHVDYSELNRLTTEIHKIGININQMARLANQFHEISSEDIKDLTDKVQSLNALVQSELNKLIKRKDQS
modifications: selenomethionine in place of methionine
notes: PcfF accessory factor encoded by plasmid pCF10 of Enterococcus faecalis; GenBank AAW51324; 118 residues; Probably with the GST cleaved off, as for the wild type; 4 molecules in the asymmetric unit (dimer of dimers); also called SeMet-PcfF; source: E. coli BL21(DE3) in M9 minimal medium with L-selenomethionine, purified as wild type PcfF with 0.5 mM TCEP
- binding result [6]: binds

B6: PcfF R13L/R16L (natural protein)
chain: MENKQKLKRPIQLIVLLSEEENNLIKRKIEESFFPNFQNFALHLLIQGEIRHVDYSELNRLTTEIHKIGININQMARLANQFHEISSEDIKDLTDKVQSLNALVQSELNKLIKRKDQS
notes: PcfF of plasmid pCF10, Enterococcus faecalis; GenBank AAW51324; 118 residues; source: E. coli BL21(DE3), purified (glutathione-agarose, SEC)
- binding result [7]: binds

B7: PcfF I14A (natural protein)
chain: MENKQKLKRPIQRAVRLSEEENNLIKRKIEESFFPNFQNFALHLLIQGEIRHVDYSELNRLTTEIHKIGININQMARLANQFHEISSEDIKDLTDKVQSLNALVQSELNKLIKRKDQS
notes: as for B6
- binding result [7]: binds

B8: PcfF Q105A (natural protein)
chain: MENKQKLKRPIQRIVRLSEEENNLIKRKIEESFFPNFQNFALHLLIQGEIRHVDYSELNRLTTEIHKIGININQMARLANQFHEISSEDIKDLTDKVQSLNALVASELNKLIKRKDQS
notes: PcfF of plasmid pCF10, Enterococcus faecalis; GenBank AAW51324; 118 residues; also called PcfF_(Q105A/W) variants; source: E. coli BL21(DE3), purified (glutathione-agarose, SEC)
- binding result [7]: binds

B9: PcfF R13L/I14A (natural protein)
chain: MENKQKLKRPIQLAVRLSEEENNLIKRKIEESFFPNFQNFALHLLIQGEIRHVDYSELNRLTTEIHKIGININQMARLANQFHEISSEDIKDLTDKVQSLNALVQSELNKLIKRKDQS
notes: as for B6
- binding result [7]: binds

B10: PcfF I70S (as run on SEC) (natural protein)
chain: MENKQKLKRPIQRIVRLSEEENNLIKRKIEESFFPNFQNFALHLLIQGEIRHVDYSELNRLTTEIHKIGSNINQMARLANQFHEISSEDIKDLTDKVQSLNALVQSELNKLIKRKDQS
notes: as for B6
- binding result [7]: binds

B11: PcfF I70S/R77S (as run on SEC) (natural protein)
chain: MENKQKLKRPIQRIVRLSEEENNLIKRKIEESFFPNFQNFALHLLIQGEIRHVDYSELNRLTTEIHKIGSNINQMASLANQFHEISSEDIKDLTDKVQSLNALVQSELNKLIKRKDQS
notes: as for B6
- binding result [7]: binds

B12: PcfF Q105W (natural protein)
chain: MENKQKLKRPIQRIVRLSEEENNLIKRKIEESFFPNFQNFALHLLIQGEIRHVDYSELNRLTTEIHKIGININQMARLANQFHEISSEDIKDLTDKVQSLNALVWSELNKLIKRKDQS
notes: as for B8
- binding result [7]: binds

B13: PcfF R77S (as run on SEC) (natural protein)
chain: MENKQKLKRPIQRIVRLSEEENNLIKRKIEESFFPNFQNFALHLLIQGEIRHVDYSELNRLTTEIHKIGININQMASLANQFHEISSEDIKDLTDKVQSLNALVQSELNKLIKRKDQS
notes: as for B6
- binding result [7]: binds

B14: PcfF R16L (natural protein)
chain: MENKQKLKRPIQRIVLLSEEENNLIKRKIEESFFPNFQNFALHLLIQGEIRHVDYSELNRLTTEIHKIGININQMARLANQFHEISSEDIKDLTDKVQSLNALVQSELNKLIKRKDQS
notes: as for B6
- binding result [7]: binds

B15: PcfF R13L (natural protein)
chain: MENKQKLKRPIQLIVRLSEEENNLIKRKIEESFFPNFQNFALHLLIQGEIRHVDYSELNRLTTEIHKIGININQMARLANQFHEISSEDIKDLTDKVQSLNALVQSELNKLIKRKDQS
notes: as for B6
- binding result [7]: binds

B16: PcfF R13L/I14A/R16L (natural protein)
chain: MENKQKLKRPIQLAVLLSEEENNLIKRKIEESFFPNFQNFALHLLIQGEIRHVDYSELNRLTTEIHKIGININQMARLANQFHEISSEDIKDLTDKVQSLNALVQSELNKLIKRKDQS
notes: as for B6
- binding result [7]: binds

B17: PcfF N73A/Q74A (as run on SEC) (natural protein)
chain: MENKQKLKRPIQRIVRLSEEENNLIKRKIEESFFPNFQNFALHLLIQGEIRHVDYSELNRLTTEIHKIGINIAAMARLANQFHEISSEDIKDLTDKVQSLNALVQSELNKLIKRKDQS
notes: as for B6
- binding result [7]: binds

B18: oriT 40 bp (dsDNA)
DNA 1: TCGCAACATGCTAGCATGTTGCTCCGCTTGCAAAAAGAAA
DNA 2: TTTCTTTTTGCAAGCGGAGCAACATGCTAGCATGTTGCGA
- Kd (PcfF [2]): ~100 nM
- binding result (PcfF R13L/I14A): no binding
- binding result (PcfF R13L): no binding
- binding result (PcfF N73A/Q74A): binds
- binding result (PcfF I70S): binds
- binding result (PcfF R77S): binds
- binding result (PcfF I70S/R77S): binds
